Data as given in paper PMC11592144, “Biochemical Characterization of an Arabinoside Monophosphate Specific 5′-Nucleotidase-like Enzyme from Streptomyces antibioticus” (Biomolecules, 2024).

Columns and labels:
[1] = substrate: Nc1ncnc2c1ncn2[C@@H]1O[C@H](COP(=O)(O)O)[C@@H](O)[C@@H]1O; test: HPLC of Ara-A formation, Lineweaver-Burk; format: biochemical, Streptomyces antibioticus; conditions: 50 mM HEPES pH 7.5, 1 mM MgCl2, 0.01-1.5 mM substrate, 0.2 mg/mL PenF
Text: HPLC of Ara-A formation, Lineweaver-Burk on PenF

[2] = substrate: Nc1ncnc2c1ncn2[C@H]1C[C@H](O)[C@@H](COP(=O)(O)O)O1; test: HPLC of deoxyadenosine formation, Lineweaver-Burk; format: biochemical, Streptomyces antibioticus; conditions: 50 mM HEPES pH 7.5, 1 mM MgCl2, 0.2-2.5 mM substrate, 0.2 mg/mL PenF
Text: HPLC of deoxyadenosine formation, Lineweaver-Burk on PenF

B1: PenF (Streptomyces antibioticus) (protein)
chain: MVTLPDRVRAHVLADFATADPAHDIHHLDRVAALAGDIAVLLGADPQTAQVAAYVHDYHRVEEARQGRRPIRPEEARSAVLDVLERSEVPEKLHGTILRAVELTGRYRFGGDELDGEDLIAAAVHDADNLDAMGAVGVGRAFAFGGLLGEPLWEPAAGLKELYTEGETSSVLAHLYEKLVHLEKDMLTEPARRLAAERAFQLHRFAAEFRSQWGEEDVVSHSGGTRVHWDPLTRFLAVTQPEPDGITVTHIGFRGQAMLAFDEQGQPVGVDLLGAPEALTHCVPHAQRSRAWVADAAGGWLLDAEADVVWISISEAPVRRRLTAVGDIEVQLREGKLATLRMHLTEEAPVSVGGEGAP
notes: codon-optimized penF in pET28a (NdeI/XhoI), C-terminal His6 tag, E. coli BL21(DE3), Ni-NTA; about 42 kDa by MALDI-TOF (45 kDa SDS-PAGE)
Work on B1 yielded a Km [1] of 71.5 µM, a Vmax [1] of 170 µM/min and a kcat [1] of 0.565 s⁻¹. The kcat/Km [1] was 7900 M⁻¹ s⁻¹, the Km [2] was 344 µM and the Vmax [2] was 11.9 µM/min. For the same protein, the kcat [2] was 0.04 s⁻¹ and the kcat/Km [2] was 117 M⁻¹ s⁻¹.
